This passage reports percent decrease of binding in the presence of heparin and percent decrease of binding in the presence of dextran sulfate results from patent US20240239901A1.

For experiment [1], the target named is human purified airway mucins (purified from induced sputum of five asthmatic donors, pooled). Kind of experiment: plate binding assay: purified mucins coated, FLAG-ITLN-1 with heparin (150 pg/mL as printed) in the binding buffer.
Experiment [2] shares this target. Kind of experiment: plate binding assay: purified mucins coated, FLAG-ITLN-1 with dextran sulfate (150 pg/mL as printed) in the binding buffer.

Regarding “FLAG-tagged recombinant ITLN-1 (Sigma, SRP8047) (from UniProt Q8WWA0 19-298) (ligand)”, in experiment [1], the percent decrease of binding in the presence of heparin amounted to 51.9%. For the same substance, the percent decrease of binding in the presence of dextran sulfate in experiment [2] was found to be 74%.
